test: yeast display, Sf9 membrane polyspecificity reagent, FACS + sequencing; frameworks hold sequencing errors
Method in brief: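 Using colony PCR, genes from sorted yeast display clones were amplified, then sequenced on MiSeq at 2 × 250 and filtered by CDR length. The clones had been stained with 10% biotinylated, detergent-solubilized Sf9 membrane reagent for 1 hour at 4 °C and sorted by FACS into low and high (top ~1%) gates on anti-HA and streptavidin fluorescence. Polyreactivity labels come from the gate of origin.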

Row | Sequence | polyreactivity (PSR sort gate)
1 | QVQLVESGGGLVQAGGSLRLSCAASGFTLYTYAMGWYRQAPGKERELVAAISTGGGRTYYADSVKGRFTISRDNAKNTVYLQMNSLKPEDTAVYYCAADSLAKTGGTVGGDYWGQGTQVSVSS | high polyreactivity
2 | QVQLVESGGGLVQAGGSLRLSCAASGFTNAMGWYRQAPGKERELVAAISYSGDSTNYADSVKGRFTISRDNAKNTVYLQMNSLKPEDSAVYYCNASSPYDYDWGQGTQVTVSS | low polyreactivity
3 | QVQLVESGGGLVQAGGSLRLSCAASGFTSHSYAMGWYRKAPGKERELVAAINGDGGSTYYADSVKGRFTISRDNAKNTLYLQMNSLKPEDTAVYYCAAETAYWYYWGQGSQVTVSS | high polyreactivity
4 | QVQLVESGGGLVQAGGSLRLSCAASGFTSSNNAMGWYRQAPGKERELFAAISSSGGRTYYADSVKGRFTISRDNAKNTVYLQMNSLQPEDTAVYFCAATGYVGGIYGHYPRGYWGQGTQVTVSS | high polyreactivity
5 | QVQLVESGGGLVQAGGSLRLSCAASGFTSTAYAMGWYRQAPGKERELVAVISSGSSTHYADSVKGRFTISRDNAKNTVYLQMNSLKPEDTAVYYCAARIRTRYFTGFYYWGQGTQVTVSS | high polyreactivity
6 | QVQLVESGGGLVQAGGSLRLSCAASGFTSTINAMGWYRQAPGKERELVAAISVSSGSTYYADSVKGRFTISRDNAKNTVYLQMNSLKPEDTAVYYCATGISRDYIYIILRYDYWGQGTQVTVSS | low polyreactivity
7 | QVQLVESGGGLVQAGGSLRLSCAASGFTSWQYAMGWYRQAPGKERELVAAISVSGASTNYADSVRGRFTISRDNAKNTVYLQMNSLKPEETAVYYCAAAYVRYPTTRYYYWGQGTQVTVSS | high polyreactivity
8 | QVQLVESGGGLVQAGGSLRLSCAASGFTSYGYAMGWYRQAPGKERELVAAISRSGGSTYYADSVKGRFTISRDNAKNTVYLQMNSLKPEDTAVYYCAVAVGREYVYRYYYWGQGTQVTVSS | high polyreactivity
9 | QVQLVESGGGLVQAGGSLRLSCAASGFTVVSYAMGWYRQAPGKERELVAAITYSGTSTYYADSVKGRFTISRDKAKNTVYLQMNSLKPEDTAVYYCNADSSWVPIWYEYDYWGHGTQVTVSS | low polyreactivity
10 | QVQLVESGGGLVQAGGSLRLSCAASGFTVYYYALGWYRQAPGKERELVAAISDSGGITSYADSVKGRFTISRDNAKNTVYLQMNSLKPEDTAVYYCAYIFGWSSSSKSYYYWGQGTQVTVSS | low polyreactivity
11 | QVQLVESGGGLVQAGGSLRLSCAASGFTYDLNAMGWYRQAPGKEREFVATISQSTGSTYYADSVKGRFTISRDNAKNTVYLQMNSLKPEDTAVYYCNKDRPYTLTWGLYEYWGQGTQVTVSS | low polyreactivity
12 | QVQLVESGGGLVQAGGSLRLSCAASGFTYGYYAMGGYRQAPGKERELVAAITNGGRTNYADSVKGRFTISRDNAKNTVYLQMNSLKPEDTAVYYCATDHYWSREGYWGQGTQVTVSS | low polyreactivity
13 | QVQLVESGGGLVQAGGSLRLSCAASGFTYVYNAMGWYRQAPGTERELVAAISSGGSTYYADSVKGRFTISRDNAKYTVYLQMNSLKPEDTAVYYCARRSSWFKYEYWGQGTQVTVSS | low polyreactivity
14 | QVQLVESGGGLVQAGGSLRLSCAASGFVWNAMGWYRPAPGTERELVAAINWRGGSTNYADSVKGRFTISRDNAKNTVYLQMNSLKPEDTAVYYCAAYFFHYHFYQAAYDYWGQGTQVTVSS | low polyreactivity
15 | QVQLVESGGGLVQAGGSLRLSCAASGGIAGNTMGWYRQAPGKERELVAAITRSGGRTYYADSVKGRFTISRDNAKNTVYLQMNSLKPEDTAVYYCAVTGLVRRRYGYWGQGTQVTVSS | high polyreactivity
16 | QVQLVESGGGLVQAGGSLRLSCAASGGIFARNVMGWYRQAPGKERELVAAISGSGGSTYYADSVKGRFTISRDNAKNTVYLQMNSLKPEDTAVYYCAARTPGVSVYKDGYWGQGTQVTVSS | low polyreactivity
17 | QVQLVESGGGLVQAGGSLRLSCAASGGIFARNVMGWYRQAPGKERELVAAISGSGGSTYYADSVKGRFTISRDNAKNTVYLQMNSLKPEDTAVYYCAARTPGVSVYKDGYWGQGTQVTVTS | low polyreactivity
18 | QVQLVESGGGLVQAGGSLRLSCAASGGIFAWNAMGWYRQAPGKERELVAAISGRGGSTTYADSVKGRFTISRDNAKNTVYLQMNSLKPEDTAVYYCAKRWYSGWYKYDYWGQGTQVTVSS | high polyreactivity
19 | QVQLVESGGGLVQAGGSLRLSCAASGGIFAYYGMGWYRQAPGKERELVAAIWIGGNTYYADSVKGRFTISRDNAKNTVYLQMNSLKPVDTAVYYCATEGFVYSWLWEFEYWGQGTQVTVSS | low polyreactivity
20 | QVQLVESGGGLVQAGGSLRLSCAASGGIFDFYAMGWYRQAPGKERELVAAIRYGGSSTYYADSVKGRFTISRDNAKNTVYLLLNSLKPEDTAVYYCAAEPFSWDTWVDYDYWGQGTQVTVSS | low polyreactivity
21 | QVQLVESGGGLVQAGGSLRLSCAASGGIFDTYVMGWYRQAPGKERELVAAITWSGGSTYYADSVKGRFTISRDNAKNTVYLQMNSLKPEDTAVYYCAASGYPIYHDDYWGQGTQVTVSS | low polyreactivity
22 | QVQLVESGGGLVQAGGSLRLSCAASGGIFFINAMGWYRQAPGKERELVAAISISDGSTYYADSVKGRFTISRDNAKNTVYLQMNSLKPEDTAVYYCAAEGFDWDSPEMEYWGQGTQVTGSS | low polyreactivity
23 | QVQLVESGGGLVQAGGSLRLSCAASGGIFFIYAMGWYRQAPGKERELVAAISWGGGSTYYADSVKGRFTISRDNAKNTFYLQMNSLKPEDTAVYYCAARLYGRGYYYWGQGTQVTVSS | high polyreactivity
24 | QVQLVESGGGLVQAGGSLRLSCAASGGIFGKYVMGWYRQAPGKERELVAGISRSAGITYYADSVKGRFTISRDNAKHTVYLQMNSLIPEDTAVYYCNARAWSYPSYHVGYDYWGQGTQVTVSS | high polyreactivity
25 | QVQLVESGGGLVQAGGSLRLSCAASGGIFGSYAMGWYRHAPGKERELVADITQSGGRTRYADSVKGRFTISRDNAKNTVYLQMNSLKPEDTAVYYCNAQDVDSGDDYDYWGQGTQVTVSS | low polyreactivity
26 | QVQLVESGGGLVQAGGSLRLSCAASGGIFGSYAMGWYRQAPGKERELVAAISGGSTYYADSVKGRFTISRDNAKNTVYLQMNSLKPEDTAVYYCAAGWSVWYQDFDYWGQGTQVTVSS | high polyreactivity
27 | QVQLVESGGGLVQAGGSLRLSCAASGGIFGVYAMVWYRQAPGKERELVAAISQSDTSTYYADSVKGRFTISRDNAKNTVYLQMNSLKPEDTAVYYCADEYYLDYYTWFDYWGQGTQVTVSS | high polyreactivity
28 | QVQLVESGGGLVQAGGSLRLSCAASGGIFGYYAMGWYRQAPGKERELVAAISISGGRTYYADSVKGRFTISRDNAKNTVYLQMNSLKPEDTAVYYCKAARKVYVRGRGSEMDYWGQGTQVTVSS | low polyreactivity
29 | QVQLVESGGGLVQAGGSLRLSCAASGGIFHPNDMGWYRQAPGKESELVAVIDSGDITNYADSVKGRFTISRDNAKNTVYLQMNSLKPEDTAVYYCAADSYSYFTDDHGYWGQGTQVTVSS | high polyreactivity
30 | QVQLVESGGGLVQAGGSLRLSCAASGGIFHVYGMGWYRQAPGKERELVAAISYSGASTSYADSVKGRFTISRDNAKNTVYLQMNSLKPEDTAVYYCAAKVYYRRYRSGYDYWGQGTQVTVSS | high polyreactivity
